T1: FGFR1 (Table 1) (UniProt P11362 22-376, limits assumed)
T1 construct: the construct is not described
T1 sequence (looked up): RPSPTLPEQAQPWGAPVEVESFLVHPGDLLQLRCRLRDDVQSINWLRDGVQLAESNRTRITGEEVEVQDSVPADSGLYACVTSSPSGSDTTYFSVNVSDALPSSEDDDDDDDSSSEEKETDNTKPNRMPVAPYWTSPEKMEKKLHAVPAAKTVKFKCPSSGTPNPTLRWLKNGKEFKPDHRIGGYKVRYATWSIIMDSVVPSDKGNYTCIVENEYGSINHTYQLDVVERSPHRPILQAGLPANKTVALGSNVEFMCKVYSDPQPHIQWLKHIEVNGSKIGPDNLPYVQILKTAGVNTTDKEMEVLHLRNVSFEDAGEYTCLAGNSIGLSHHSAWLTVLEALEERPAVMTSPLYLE

B1: PRO-001 Fab (Fab, V domains shown)
VH: QVQLQQSGPGLVKPSQTLSLTCAISGDSVSSNSAAWNWIRQSPGRGLEWLGRTYYRSKWYNDYAVSVKSRITINPDTSKNQFSLQLNSVTPEDTAVYYCARSYYPDFDYWGQGTLVTVSS
VL: DIELTQPPSVSVAPGQTARISCSGDALGDKYASWYQQKPGQAPVLVIYDDSDRPSGIPERFSGSNSGNTATLTISGTQAEDEADYYCQSYDGPDLWVFGGGTKLTVLG
notes: Human Fab from the HuCAL-Fab-1 library; also called human anti-FGFR3 Fab PRO-001; anti-FGFR3 antibody
B2: PRO-002 (Fab, V domains shown)
VH: QVQLVQSGAEVKKPGASVKVSCKASGYTFTSYYMHWVRQAPGQGLEWMGWINPNSGGTNYAQKFQGRVTMTRDTSISTAYMELSSLRSEDTAVYYCARDFLGYEFDYWGQGTLVTVSS
VL: B1 VL with G92Y, P93S, D94A, L95D, W96Y
notes: HuCAL clone; the IC50 may be of the Fab-dHLX format
B3: PRO-021 (Fab, V domains shown)
VH: QVQLVQSGAEVKKPGSSVKVSCKASGGTFSSYAISWVRQAPGQGLEWMGGIIPIFGTANYAQKFQGRVTITADESTSTAYMELSSLRSEDTAVYYCARDNWFKPFSDVWGQGTLVTVSS
VL: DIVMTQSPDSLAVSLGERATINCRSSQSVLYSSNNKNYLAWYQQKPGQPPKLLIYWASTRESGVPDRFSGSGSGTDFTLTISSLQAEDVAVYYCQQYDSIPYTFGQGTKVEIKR
notes: as for B2
B4: PRO-029 (Fab, V domains shown)
VH: QVQLVQSGAEVKKPGASVKVSCKASGYTFTSYYMHWVRQAPGQGLEWMGWINPNSGGTNYAQKFQGRVTMTRDTSISTAYMELSSLRSEDTAVYYCARTWQYSYFYYLDGGYYFDIWGQGTLVTVSS
VL: DIVLTQSPATLSLSPGERATLSCRASQSVSSSYLAWYQQKPGQAPRLLIYGASSRATGVPARFSGSGSGTDFTLTISSLEPEDFATYYCQQTNNAPVTFGQGTKVEIKR
notes: HuCAL clone
B5: PRO-012 (Fab, V domains shown)
VH: QVQLKESGPALVKPTQTLTLTCTFSGFSLSTSGVGVGWIRQPPGKALEWLALIDWDDDKYYSTSLKTRLTISKDTSKNQVVLTMTNMDPVDTATYYCARYHSWYEMGYYGSTVGYMFDYWGQGTLVTVSS
VL: DIELTQPPSVSVAPGQTARISCSGDALGDKYASWYQQKPGQAPVLVIYDDSDRPSGIPERFSGSNSGNTATLTISGTQAEDEADYYCQSYDFDFAVFGGGTKLTVLG
notes: as for B2
B6: PRO-026 (Fab, V domains shown)
VH: QVQLVQSGAEVKKPGASVKVSCKASGYTFTSYYMHWVRQAPGQGLEWMGWINPNSGGTNYAQKFQGRVTMTRDTSISTAYMELSSLRSEDTAVYYCARGYWYAYFTYINYGYFDNWGQGTLVTVSS
VL: DIALTQPASVSGSPGQSITISCTGTSSDVGGYNYVSWYQQHPGKAPKLMIYDVSNRPSGVSNRFSGSKSGNTASLTISGLQAEDEADYYCQSYDNNSDVVFGGGTKLTVLG
notes: HuCAL clone; the VL is headed 'MS-Pro-26-VL'; also called MS-Pro-26
B7: PRO-054 (Fab, V domains shown)
VH: QVQLVQSGAEVKKPGASVKVSCKASGYTFTSYYMHWVRQAPGQGLEWMGWINPNSGGTNYAQKFQGRVTMTRDTSISTAYMELSSLRSEDTAVYYCARNMAYTNYQYVNMPHFDYWGQGTLVTVSS
VL: B5 VL with F92Y, D93F, F94K, A95L
notes: HuCAL clone
B8: PRO-024 (Fab, V domains shown)
VH: B3 VH with D99V, W101H, F102W, K103T, P104Y, F105T, S106F, V108Y
VL: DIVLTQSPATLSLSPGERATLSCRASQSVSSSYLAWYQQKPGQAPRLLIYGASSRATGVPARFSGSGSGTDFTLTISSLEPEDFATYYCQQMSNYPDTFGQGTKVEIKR
B9: PRO-055 (Fab, V domains shown)
VH: QVQLVQSGAEVKKPGASVKVSCKASGYTFTSYYMHWVRQAPGQGLEWMGWINPNSGGTNYAQKFQGRVTMTRDTSISTAYMELSSLRSEDTAVYYCARSMNSTMYWYLRRVLFDHWGQGTLVTVSS
VL: B6 VL with N95M, N96Y, S97N, D98Y, V99I

In general, Kd refers to the concentration at which binding is half-saturated. Lower therefore signals higher affinity.

Numbering of substitutions follows the chain as printed. Some results are limits rather than exact numbers.

T2 sequence (P22607 23-806 limits assumed): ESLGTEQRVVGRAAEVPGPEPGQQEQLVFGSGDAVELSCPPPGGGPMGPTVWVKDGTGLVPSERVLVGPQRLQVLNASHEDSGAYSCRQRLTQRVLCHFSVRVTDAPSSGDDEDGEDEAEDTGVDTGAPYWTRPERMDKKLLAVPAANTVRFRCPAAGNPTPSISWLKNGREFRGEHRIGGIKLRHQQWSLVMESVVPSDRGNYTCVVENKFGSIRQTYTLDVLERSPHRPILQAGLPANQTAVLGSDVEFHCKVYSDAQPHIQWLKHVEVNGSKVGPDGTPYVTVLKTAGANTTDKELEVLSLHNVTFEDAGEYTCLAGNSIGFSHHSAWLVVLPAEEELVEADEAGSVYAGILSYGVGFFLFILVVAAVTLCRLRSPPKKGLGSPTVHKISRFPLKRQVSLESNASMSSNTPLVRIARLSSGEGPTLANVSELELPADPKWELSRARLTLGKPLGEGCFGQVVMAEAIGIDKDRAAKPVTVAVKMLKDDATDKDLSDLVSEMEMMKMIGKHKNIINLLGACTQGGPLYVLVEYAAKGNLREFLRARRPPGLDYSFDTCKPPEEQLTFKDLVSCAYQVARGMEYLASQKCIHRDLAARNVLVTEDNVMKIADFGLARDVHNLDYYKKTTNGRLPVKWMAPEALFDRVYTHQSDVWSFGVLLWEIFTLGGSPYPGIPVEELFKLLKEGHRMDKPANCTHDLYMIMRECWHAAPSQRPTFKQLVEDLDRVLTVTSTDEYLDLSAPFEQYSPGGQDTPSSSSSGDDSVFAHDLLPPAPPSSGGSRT
Sequence of FGFR3-Y373C expressed on B9 cells (P22607 23-806 Y373C limits assumed): as the sequence (P22607 23-806 limits assumed) above, with Y351C counted along it

One assay addresses T2, wild type FGFR3 expressed on cells (UniProt P22607 23-806, limits assumed).
T2 construct: whole, on cells; the myeloma cell lines and patient cells are human; also called WT FGFR3; B9-FGFR3^WT
The assay is described as follows: FACS.
As for B1, the affinity, expressed as Kd, was 0.7 nM.
In turn, B2 registered a dissociation constant (Kd) of 43 nM.
Regarding B3, the Kd was determined as 1.1 nM.
Molecule B4 returned a Kd below 1 nM.
Molecule B5 showed a dissociation constant Kd of 6.5 nM.
Same read-out and setting: the result for B6 reads 1.4 nM.

The target in a further assay is T2, wild type FGFR3 expressed on cells. The assay is described as follows: cell-based or functional assay.
For B1, the “IC50 of FGF stimulated proliferation of FDCP-FGFR3 cells (XTT)” value amounted to 0.5 µg/mL.

The target in the next assay is FGFR3-F384L expressed on B9 cells (UniProt P22607 23-806). The assay is described as follows: cell-based or functional assay.
Sequence of FGFR3-F384L expressed on B9 cells (P22607 23-806 F384L limits assumed): as the sequence (P22607 23-806 limits assumed) above, with F362L counted along it
In the case of B1, the “IC50 of FGF-stimulated growth of B9 cells expressing FGFR3 F384L” value is around 3 µg/mL.

A further assay concerns the target FGFR3-Y373C expressed on B9 cells (UniProt P22607 23-806). The assay is described as follows: cell-based or functional assay.
In the case of B1, the “IC50 of FGF-stimulated growth of B9 cells expressing Y373C-FGFR3” value is around 3 µg/mL.

For the next assay, the target named is T1, FGFR1 (Table 1). The assay is described as follows: BIAcore and/or FACS. Background: Surface plasmon resonance follows binding to a sensor surface in real time, without labels.
In turn, B4 showed a Kd of 29 nM.
On to B7, for which the Kd amounted to 2.5 nM.
On the same count and under the same terms, the result for B6 reads 32 nM.

A further assay concerns the target T2, wild type FGFR3 expressed on cells. The assay is described as follows: cell-based or functional assay. This is another data set of the same source.
Turning to B1, the “IC50 FGFR3 (FGF9), FDCP-FGFR3 proliferation assay (dHLX format)” value (shortened to “IC50 FGFR3 (FGF9)”) is 19 nM.
On to B2, for which the “IC50 FGFR3 (FGF9)” value came to 360 nM.
The same measure, in the same setting: to B3 belongs 50 nM; to B8, 70 nM; to B4, 20 nM.
As to B5, the “IC50 FGFR3 (FGF9)” value was determined as 58 nM.
The same measure, in the same setting: the result for B7 reads 45 nM; that for B6, 70 nM; that for B9, 34 nM.
